Results on three molecules are retold here after patent publication US20190083615A1 (Merck Sharp & Dohme, published 2019).

One test has as its target T1, human CD4 (human, UniProt P01730 26-458).
T1 construct: whole, on cells; Tested on transfected L-cells by FACS and also by BiaCore
The test is described as follows: BiaCore (SPR).

Test [1] has as its target T2, human LAG3 (Lymphocyte Activation Gene-3) expressed on cells (human, UniProt P18627 23-525).
T2 construct: also called hLAG3; CD223
T2 sequence: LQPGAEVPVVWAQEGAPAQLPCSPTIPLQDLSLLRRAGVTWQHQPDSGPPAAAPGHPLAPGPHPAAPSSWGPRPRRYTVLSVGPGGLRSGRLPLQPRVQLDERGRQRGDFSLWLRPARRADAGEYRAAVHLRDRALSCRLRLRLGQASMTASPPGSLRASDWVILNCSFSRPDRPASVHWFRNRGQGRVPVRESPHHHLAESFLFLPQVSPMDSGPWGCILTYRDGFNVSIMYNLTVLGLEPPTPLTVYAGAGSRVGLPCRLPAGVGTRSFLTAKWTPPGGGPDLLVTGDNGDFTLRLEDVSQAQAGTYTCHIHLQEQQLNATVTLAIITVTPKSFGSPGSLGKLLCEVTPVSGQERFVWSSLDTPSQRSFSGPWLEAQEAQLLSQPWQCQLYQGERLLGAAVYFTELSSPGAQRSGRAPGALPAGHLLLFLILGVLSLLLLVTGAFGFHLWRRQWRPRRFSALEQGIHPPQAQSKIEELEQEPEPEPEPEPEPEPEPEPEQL
The test is described as follows: flow cytometry, PHA-activated human CD4+ T cells (3 donors). The method, then: (§1) Binding of LAG-3 mAb clones to primary T-cells was assessed using human and cynomolgous monkey (cyno) peripheral blood mononuclear cells (PBMC). Human blood was obtained from the local donors; cyno blood was obtained from Bioreclamation. PBMC were isolated from the whole blood using Ficoll-Paque Plus (GE Healthcare, Cat# 17-1440-03) density gradient centrifugation at 524×g for 40 minutes. PBMC were collected from the medium:plasma interface and washed 2 times with phosphate buffered saline (PBS). The residual red blood cells were lysed using ammonium-chloride-potassium red blood cell lysing solution (ACK, GIBCO, cat# A10492-010). Cynomolgus monkey or human PBMC (3×10⁶/ml) were stimulated with 4 μg/ml PHA (Sigma, L2769) for 48 h and 20 h, respectively. For flow cytometric analysis, 1×10⁶ PHA-activated PBMCs were used per staining in 50 μl FACS staining buffer (BD, cat# 554657). LAG-3 mAb clones or correspondent isotype controls were incubated with human or cyno PBMS followed by detection using goat anti-mouse IgG-PE (BD 550589). […] Sample acquisition was performed on an LSR II flow cytometer and the data were analyzed using FlowJo software version 10.0.6 (Tree Star, Inc.).
(§2) The data represent 3 human and 3 cynomolgus donors after stimulation with 4 ug/ml of PHA for 40 hours prior to staining.

For test [2], the target named is T2, human LAG3 (Lymphocyte Activation …). The test is described as follows: flow cytometry, PHA-activated human CD8+ T cells (3 donors). The method, then: as §1, §2
Test [3] has the same target. Nature of the test: cell based KinExA, BaF/3 cells transfected with human LAG3 (n=3). The method, then:
The affinities of the LAG3 antibodies for LAG3 were determined using a cell based Kinetic Exclusion Assay (KinExA). Cell based KinExA can be used to measure the affinity of a molecule for a binding partner on a cell surface (Rathanaswami et al. Analylitical Biochemistry 373(1): 52-60 (2008); Xie et al. J. Immunol. Methods 304 (1-2): 1-14 (2005)). In this case, BaF/3 cells were stably transfected with human and cynomolgus monkey LAG3 proteins. Transfected cells or the parental BaF/3 control cell line were grown to a density of 1.7×10⁶ to 3.2×10⁶ cells per ml at 37° C., 120 RPM, 5% CO₂, in 1X RPMI 1640 media with 10% FBS, 10 ng/ml IL-3, 5 μg/ml puromycin. Cells were concentrated, mixed with 15 pM or 150 pM antibody in cell culture media and incubated 24 to 48 hours at room temperature while rotating at 20 to 30 RPM. Cells were present at a top concentration of 2×10⁷ cells per ml (parental BaF/3 or cynomolgus LAG3 transfectants) or 1×10⁷ cells per ml (human LAG3 transfectants) and diluted in a 2-fold, 18 member series. The cells were pelleted and free antibody in the supernatant was measured using a KinExA 3200 instrument (Sapidyne, Id., USA). […] Antibody on the beads was labeled with 1.5 μg/ml Alexa Fluor® 647 conjugated goat anti-human (Fab′)₂ (Jackson ImmunoResearch Laboratories), washed and the fluorescent signal was read all using the KinExA™ 3200. […]

For test [4], the target named is T3, human LAG3-huFc recombinant protein (human, UniProt P18627 23-450, limits assumed, biotinylated in the runs with humanized and chimeric antibodies (Example 11)).
T3 construct: also called human LAG3-Fc; huLAG3-huFc; not shown: human Fc
T3 sequence: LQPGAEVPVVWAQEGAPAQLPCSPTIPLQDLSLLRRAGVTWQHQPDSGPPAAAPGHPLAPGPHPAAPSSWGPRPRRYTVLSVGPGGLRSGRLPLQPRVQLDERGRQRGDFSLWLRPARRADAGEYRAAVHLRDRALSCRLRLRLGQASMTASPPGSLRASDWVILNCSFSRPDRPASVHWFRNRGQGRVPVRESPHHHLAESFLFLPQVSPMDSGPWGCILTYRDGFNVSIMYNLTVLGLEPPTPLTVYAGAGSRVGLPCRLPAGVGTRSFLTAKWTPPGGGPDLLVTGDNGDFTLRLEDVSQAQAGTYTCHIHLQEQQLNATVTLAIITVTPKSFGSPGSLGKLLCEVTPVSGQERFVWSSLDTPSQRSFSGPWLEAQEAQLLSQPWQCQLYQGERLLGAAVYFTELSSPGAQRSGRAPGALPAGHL
The test is described as follows: flow cytometry, blockade of biotinylated human LAG3-huFc binding to MHC class II on Daudi cells, streptavidin-PE. The method, then: Mouse anti-human LAG3 and humanized anti-LAG3 clones were tested for their ability to block hLAG3 interaction with human MHC Class II. Daudi cells (ATCC #CCL-213) were used as a cell line positive for human MHC class II expression. Daudi cells were blocked with 10 ug/ml of goat IgG in HBSS and 2% BCS on ice for 30 minutes and 0.5×10⁶ cells/sample were aliquoted into a 96-well V-bottom plate and blocking buffer removed. […] Cells were pelleted by centrifugation at 1200 rpm and washed twice with HBSS/2% BCS. […] Cells were washed twice as described above, resuspended in HBSS/2% BCS and read on the FACSCalibur.

Test [5] deals with T2, human LAG3 (Lymphocyte Activation …). Nature of the test: cell based KinExA, BaF/3 cells transfected with human LAG3 (n=2). As to the method: The affinities of the LAG3 antibodies for LAG3 were determined using a cell based Kinetic Exclusion Assay (KinExA). Cell based KinExA can be used to measure the affinity of a molecule for a binding partner on a cell surface (Rathanaswami et al. Analylitical Biochemistry 373(1): 52-60 (2008); Xie et al. J. Immunol. Methods 304 (1-2): 1-14 (2005)). In this case, BaF/3 cells were stably transfected with human and cynomolgus monkey LAG3 proteins. Transfected cells or the parental BaF/3 control cell line were grown to a density of 1.7×10⁶ to 3.2×10⁶ cells per ml at 37° C., 120 RPM, 5% CO₂, in 1X RPMI 1640 media with 10% FBS, 10 ng/ml IL-3, 5 μg/ml puromycin. Cells were concentrated, mixed with 15 pM or 150 pM antibody in cell culture media and incubated 24 to 48 hours at room temperature while rotating at 20 to 30 RPM. Cells were present at a top concentration of 2×10⁷ cells per ml (parental BaF/3 or cynomolgus LAG3 transfectants) or 1×10⁷ cells per ml (human LAG3 transfectants) and diluted in a 2-fold, 18 member series. The cells were pelleted and free antibody in the supernatant was measured using a KinExA 3200 instrument (Sapidyne, Id., USA). […] Antibody on the beads was labeled with 1.5 μg/ml Alexa Fluor® 647 conjugated goat anti-human (Fab′)₂ (Jackson ImmunoResearch Laboratories), washed and the fluorescent signal was read all using the KinExA™ 3200. The data from the 15 pM and 150 pM concentrations of each antibody were fit simultaneously using KinExA™ Pro n-Curve Analysis software version 4.0.11 (Sapidyne).

B1: Ab6: humanized light chain 45AGX Humanized x[LAG3_H] mAb (LB145.22D2.E1.D1 (VL3)) Kappa (PX) and humanized heavy chain 73AHD Humanized x[LAG3_H] mAb … (antibody)
heavy: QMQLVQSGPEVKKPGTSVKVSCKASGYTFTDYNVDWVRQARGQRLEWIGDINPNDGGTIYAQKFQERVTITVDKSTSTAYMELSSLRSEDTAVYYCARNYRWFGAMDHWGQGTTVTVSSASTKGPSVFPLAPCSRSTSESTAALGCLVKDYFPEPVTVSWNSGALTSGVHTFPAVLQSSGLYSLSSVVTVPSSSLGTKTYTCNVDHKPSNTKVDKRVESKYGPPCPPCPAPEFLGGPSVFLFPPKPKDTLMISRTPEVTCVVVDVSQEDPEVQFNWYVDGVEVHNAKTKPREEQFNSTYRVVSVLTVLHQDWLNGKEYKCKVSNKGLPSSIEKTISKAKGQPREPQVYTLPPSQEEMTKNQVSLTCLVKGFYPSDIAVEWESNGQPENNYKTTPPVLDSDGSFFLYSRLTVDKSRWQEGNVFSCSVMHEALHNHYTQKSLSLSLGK
light: DIVMTQTPLSLSVTPGQPASISCKASQSLDYEGDSDMNWYLQKPGQPPQLLIYGASNLESGVPDRFSGSGSGTDFTLKISRVEAEDVGVYYCQQSTEDPRTFGGGTKVEIKRTVAAPSVFIFPPSDEQLKSGTASVVCLLNNFYPREAKVQWKVDNALQSGNSQESVTEQDSKDSTYSLSSTLTLSKADYEKHKVYACEVTHQGLSSPVTKSFNRGEC
notes: Humanized 22D2 N55D, IgG4 S228P/kappa; also called Hu22D2 VH6/VL3 N55D (Ab 6); hu22D2 VH6/VL3 N55D
On to B1, for which the binding result in the test with human CD4 was “no binding”. For the same molecule, the values for the 50% effective concentration (EC50) in test [1] and in test [2] were 0.039 nM and 0.033 nM, respectively. In test [3], this molecule returned a dissociation constant Kd of 0.002 nM. Further, the half-inhibitory concentration (IC50) in test [4] came out at 2.4 nM.

B2: Ab7: humanized light chain 45AGX Humanized x[LAG3_H] mAb (LB145.22D2.E1.D1 (VL3)) Kappa (PX) and humanized heavy chain 21AHG Humanized x[LAG3_H] mAb … (antibody)
heavy: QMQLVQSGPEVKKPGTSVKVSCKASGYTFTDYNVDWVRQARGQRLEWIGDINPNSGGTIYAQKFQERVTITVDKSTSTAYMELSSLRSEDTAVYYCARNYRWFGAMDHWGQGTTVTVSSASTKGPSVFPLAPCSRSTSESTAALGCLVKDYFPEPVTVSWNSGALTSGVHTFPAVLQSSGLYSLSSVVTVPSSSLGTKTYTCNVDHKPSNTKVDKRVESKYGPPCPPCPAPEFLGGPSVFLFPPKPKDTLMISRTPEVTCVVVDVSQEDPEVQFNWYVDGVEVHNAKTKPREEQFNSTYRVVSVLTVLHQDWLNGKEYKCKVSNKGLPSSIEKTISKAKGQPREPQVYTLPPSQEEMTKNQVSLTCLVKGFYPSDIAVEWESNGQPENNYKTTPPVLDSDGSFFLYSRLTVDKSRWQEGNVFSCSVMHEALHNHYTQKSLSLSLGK
light: B1 light
notes: Humanized 22D2 N55S, IgG4 S228P/kappa; also called Hu22D2 VH6/VL3 N55S (Ab 7); hu22D2 VH6/VL3 N55S
Regarding B2, the EC50 in test [1] was 0.057 nM; in test [2], 0.049 nM. The affinity in test [5], expressed as Kd, was 0.01 nM. Moreover, the half-inhibitory concentration (IC50) in test [4] came to 2.1 nM.

B3: Ab8: humanized light chain 45AGX Humanized x[LAG3_H] mAb (LB145.22D2.E1.D1 (VL3)) Kappa (PX) and humanized heavy chain 80AHG Humanized x[LAG3_H] mAb … (antibody)
heavy: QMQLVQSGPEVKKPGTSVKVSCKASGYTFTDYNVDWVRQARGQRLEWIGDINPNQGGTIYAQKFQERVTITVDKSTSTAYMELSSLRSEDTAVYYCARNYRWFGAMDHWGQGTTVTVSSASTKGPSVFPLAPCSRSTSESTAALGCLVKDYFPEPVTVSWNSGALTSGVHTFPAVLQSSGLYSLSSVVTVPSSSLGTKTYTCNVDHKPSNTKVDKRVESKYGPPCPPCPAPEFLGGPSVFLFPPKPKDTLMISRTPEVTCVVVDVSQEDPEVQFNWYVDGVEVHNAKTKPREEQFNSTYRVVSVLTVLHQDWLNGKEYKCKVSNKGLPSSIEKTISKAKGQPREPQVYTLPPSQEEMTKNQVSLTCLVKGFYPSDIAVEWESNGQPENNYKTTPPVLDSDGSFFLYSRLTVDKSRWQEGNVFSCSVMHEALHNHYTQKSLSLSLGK
light: B1 light
notes: Humanized 22D2 N55Q, IgG4 S228P/kappa; also called Hu22D2 VH6/VL3 N55Q (Ab 8); hu22D2 VH6/VL3 N55Q
Take B3: the EC50 in test [1] was 0.041 nM; in test [2] it was 0.035 nM. Further, the Kd in test [5] came to 0.011 nM. Further, the IC50 in test [4] was found to be 2.5 nM.
